Experimental data reported in doi:10.1101/2022.01.11.475947.

Target: Fusion protein of Nipah virus (F-clamp) (Nipah virus)
Test: SEC

For Fusion protein of Nipah virus (F-clamp), the stoichiometry N was 3.
